Results published in US12365710B2, “HMGB1 protein derivatives for the removal of biofilms” (RESEARCH INSTITUTE AT NATIONWIDE CHILDREN'S HOSPITAL, priority 2018, dated 2025).
Where two headings read alike, the source gives them in different places.

B1: B-linker Box: HMGB1 B Box with N- and C-terminal linker (80-179; 80 to 176 in b258), 97 amino acid (protein, UniProt P09429 80-179, looked up, fragment)
chain: PPKGETKKKFKDPNAPKRPPSAFFLFCSEYRPKIKGEHPGLSIGDVAKKLGEMWNNTAADDKQPYEKKAAKLKEKYEKDIAAYRAKGKPDAAKKGVVKAE

Key:
serum TNF-alpha (TNF-α) [1] = conditions: cited from earlier work
serum TNF-alpha (TNF-α) [2] = format: in vivo, mice; conditions: 24 h; for serum TNF elicited on their own: 0.2 nmol endotoxin free protein i.p., naive mice; for additional pro-inflammatory signaling in LPS-primed mice: 0.2 nmol i.p. with LPS 5 mg/kg
Protocol: FIGS. 7A-7G: HMGB1 promotes clearance of S. cenocepaca from mice without inducing sepsis. C57BL/6 mice were challenged with 10^7 CFU intratracheally, and either simultaneously (prevention) or 24 h later (treatment) received 0.2 nmol of HMGB1 valiant. (FIG. 7A) Aggregates of B. cenocepacia were visible by fluorescence microscopy in lung sections probed with an α-B. cenocepacia antibody. For prevention, (FIG. 7B) bronchoalveolar lavage (BAL) collected 18 h post-inoculation (hpi) was analyzed for CFU. (FIG. 7C) Neutrophils in BAL were quantified by differential cell counting. (FIG. 7D) Lung tissue collected 72hpi was fixed, embedded, sectioned, and stained with hematoxylin & eosin (10× magnification). For treatment, 72hpi (FIG. 7E) CFUs were quantified in BAL. (FIG. 7F) Neutrophil recruitment was analyzed 24 h after intraperitoneal (i.p.) administration of HMGB1 valiants by fluorescence-activated cell sorting of peritoneal lavage stained with α-CD45, α-CD11b, and αLy-6G. (FIG. 7G) Serum TNF-α. was measured by ELISA in mice injected i.p. with 0.2 nmol HMGB1 valiants, 5 mg/kg LPS, or both. LoD: limit of detection. Bars represent SD. *P<0.05.
Mice were monitored for 24 h for signs of sepsis, then serum TNF-alpha (TNF-α) levels were measured by ELISA as a surrogate for sepsis induction. […] It has been reported, that compared to our doses, >450-fold for B Box alone, or 4 doses of 2-fold greater amounts of rHMGB1 in 40 h with lipopolysaccharide (LPS)-primed mice20 are required to induce sepsis. In addition, these endotoxin-free polypeptides were tested for anti-biofilm activity in vitro as described above and found to maintain full function against UPEC and Bc biofilms (data not shown).

UPEC biofilm = test: in vitro disruption of established biofilms, CLSM and COMSTAT; format: cell-based, Uropathogenic E. coli; conditions: for disruption of established UPEC biofilms: added at 24 h, 16 h exposure, 200 nM unless stated
Protocol: (§1) FIGS. 5A-5E: Anti-biofilm effect of HMGB1 variants on high priority bacterial pathogens. Indicated HMGB1 variants or antibodies against DNABII proteins (α-1HFEc 1gG, 1 μM) were added at 24 h to the respective preformed bacterial biofilms, in vitro. After 16 h of Incubation, biofilms were stained with LIVE/DEAD®, then visualized via confocal laser scanning microscopy. Images were analyzed by COMSTAT to calculate average thickness and comparison to control was plotted. (FIG. 5A) Full-length HMGB1 isoforms (200 nM unless otherwise indicated) added to UPEC, B. cenocepacia, NTHI, or ESKAPE pathogens. 800 nM rHMGB1 and 200 nM mHMGB1 were added for S. aureus (ESKAPE). 800 nM rHMGB1, 800 nM mHMGB1, or 3.3 μM of α-1HFEc 1gG were added for E. faecium (ESKAPE) and were incubated for 1 h as opposed to 16 h to avoid potential degradation by E. faecium proteases. (FIG. 5B) Representative images of UPEC biofilms incubated with increasing concentrations of rHMGB1. (FIG. 5C) Individual domains of HMGB1 (200 nM) were tested for anti-biofilm activity as above (dotted line indicates control values). Bars represent the SEM. Statistical significance compared to control was assessed with unpaired t-tests, *P<0.05. […] (FIGS. 5D-5E) HMGB1 and variants disrupt preformed Klebsiella pneumoniae biofilms. rHMGB1, HMGB1 C45S (mHMGB1), bovine HMGB1 (bHMGB1), B box, B Box C106S (mB Box), A Box, and A+B Box were added (200 nM) at 24 h to preformed K. pneumoniae biofilms. After 16 h of incubation, biofilms were stained with LIVE/DEAD®, then visualized via confocal laser scanning microscopy. Images were analyzed by COMSTAT to calculate average thickness and total biomass. Error bars represent the SEM. ***P<0.0001; ns=not significant.
(§2) HMGB1 disrupts pathogenic biofilms: To test the effect of HMGB1 on bacterial biofilms (FIG. 5), Applicant cloned (IMPACT®, NEB Ipswich, MA), expressed (in E. coli), and purified (heparin sepharose chromatography to >95% purity) tagless human recombinant HMGB1 (rHMGB1) and an engineered C45 S variant (mHMGB1) that mimics the reduced form of HMGB1. rHMGB1 readily forms an intramolecular disulfide bond between C23 and C45 that contributes to pro-inflammatory activity whereas mHMGB1 cannot. These HMGB1 isoforms were evaluated for ability to disrupt established biofilms (formed for 24 h prior to addition). After a 16 h exposure to a single dose of rHMGB1 (200 nM; ˜25-fold greater than typical sepsis serum concentration, but not able to directly induce sepsis), biofilms formed by a wide variety of high priority species were stained with LIVE/DEAD®, analyzed using confocal laser scanning microscopy (CLSM) and COMSTAT analysis and compared to control biofilms. […] Preliminary analysis of PTMs by LC-MS/MS analysis (MS Bioworks, LLC Ann Arbor, MI) indicated minimal modification of both rHMGB1 and nHMGB1 (<20% of the observed peptides had any given PTM, FIG. 1C). […] Thus, while there are intrinsic differences in sensitivity among pathogens, the biofilms formed by all of the tested high priority pathogens were susceptible to a single dose of these non-antimicrobial compounds.
HMGB1 domain structure and anti-biofilm activity: Applicant then produced recombinant HMGB1 truncation variants, of 1) the A Box, a self-contained DNA-binding domain (residues 1-89); 2) an A-B Boxes construct (lacks the C tail; residues 1-185); and 3) the B Box (residues 80 to 176, FIGS. 1A and 1C). […] Since only the B Box can modulate DNA bending, without being bound by theory, it was hypothesized that HMGB1 disrupts biofilms at least in part via DNA-binding/bending. As the B Box is reported to contain pro-inflammatory activity, mediated primarily through interactions with TLR4-MD2 that are dependent on residue C106, Applicant created a modified B Box variant (mB Box) with a C106S mutation (FIGS. 1A and 1C).

NTHI biofilm = test: as above; format: cell-based, Nontypeable Haemophilus influenzae; conditions: 200 nM added at 24 h, 16 h exposure
Protocol: as §1, §2
HMGB1 domain structure and anti-biofilm activity: Applicant then produced recombinant HMGB1 truncation variants, of 1) the A Box, a self-contained DNA-binding domain (residues 1-89); 2) an A-B Boxes construct (lacks the C tail; residues 1-185); and 3) the B Box (residues 80 to 176, FIGS. 1A and 1C). […]

| Molecule | amount required to induce sepsis, compared to our doses (serum TNF-alpha (TNF-α) [1]; 4 doses in 40 h, LPS-primed mice) | serum TNF elicited on their own (serum TNF-alpha (TNF-α) [2]) | additional pro-inflammatory signaling in LPS-primed mice (serum TNF-alpha (TNF-α) [2]) | disruption of established UPEC biofilms (UPEC biofilm) | average thickness of UPEC biofilm (UPEC biofilm; progressively higher concentrations of rHMGB1, up to 400 nM, monolayer) | disruption of established NTHI biofilms (NTHI biofilm) | amount required to induce sepsis, compared to our doses (serum TNF-alpha (TNF-α) [1]; B Box alone) |
| --- | --- | --- | --- | --- | --- | --- | --- |
| rHMGB1: tagless human recombinant full length HMGB1 (1-215) expressed in E. coli | 2 fold | neither rHMGB1, B Box, nor mB Box elicited detectable TNF | none induced additional pro-inflammatory signaling | disrupted a UPEC biofilm in a dose-dependent manner | ~1 μm | not as responsive | – |
| B1 | – | neither rHMGB1, B Box, nor mB Box elicited detectable TNF | none induced additional pro-inflammatory signaling | retained full anti-biofilm activity | – | retained full anti-biofilm activity | > 450 fold |
